Measurements published in patent US10174106B2, “Anti-neurotensin long fragment antibodies and uses thereof” (INSERM (INSTITUT NATIONAL DE LA SANTÉ ET DE LA RECHERCHE …, priority 2014, dated 2019).

B1: FLp26-8.2: NTS monoclonal antibody directed against NTS long fragment; VH SEQ ID NO:1, VL SEQ ID NO:5 (antibody, V domains shown)
VH: QIQLVQSGPELKKPGETVKISCKASGYTFTNYGMNWVKQAPGKGLKWMGWITTNTGEPTYAEEFKGRFAFSLETSASTAYLQINNLKNEDTATYFCARRAFAMDYWGQGTSVTVSS
VL: DIVMTQAAPSVPVTPGESVSISCRSSKSLLHSNGNTYLYWFLQRPGQSPQLLIYRMSNLASGVPDRFSGSGSGTAFTLRISRVEAEDVGVYYCMQHLEYPYTFGGGTKLEIK
modifications: Synthetic VH Sequence; Synthetic VL sequence

Tests used:
LNM-R tumors [1] = experiment: Cisplatin test, LNM-R xenograft; assay type: in vivo, NMRI nu/nu mice
Procedure: (§1) Cisplatin test, 1×10^6 LMN-R cells and 1×10^6 R-SI NTSR1 were subcutaneously inoculated in NMRI nu/nu mice, LMN-R in the left flank and R-SI NTSR1 in the right flank. When tumors generated by LMN-R reached an average volume of 95 mm^3, mice were randomized in 5 groups of 8 to 10 mice. Group 1 was administered with PBS, group 2 with antibody FLp26-8.2 (i.p. every other day, 15 mg/kg) for total of 13 times and group 3 with mouse IgG (i.p. every other day, 15 mg/kg). Group 4 was administered with PBS and cisplatin (1 mg/kg at day 1,3 5 7, 15, 17, and 19) and groups 5 with antibody FLp26-8.2 (i.p. every other day, 15 mg/kg) and cisplatin (1 mg/kg at day 1,3 5 7, 15, 17, and 19). The volume of tumor was measured every other day.

R-SI NTSR1 tumors [2] = experiment: Cisplatin test, R-SI NTSR1 xenograft; assay type: in vivo, NMRI nu/nu mice; settings: cisplatin 1 mg/kg day 1,3,5,7,15,17,19
Procedure: as §1

[3] = test system: NTS-h cells (MCF-7 overexpressing NTS); experiment: Type I collagen invasion assay, MCF-7 cells overexpressing NTS (NTS-h); assay type: cell-based; settings: NTS-overexpressing clone NTS-h; EGF 100 ng/mL; 7 μg antibody; 48 h
Procedure: The mouse #4 was selected. 5 clones were obtained. Clones 1-6, 7-12, 8-2, 13-1, and 16-12 were tested. […] The experiments were repeated twice.
(§2) The cell culture insert (8 μm, Beckton Dickinson®) was coated with type I collagen (100 μl/well, 4×10^2 μg/ml, Sigma®) at 37° C. 24 h before the assay. 1 million MCF, NTS-h, Hep 3B, HepR1a, and HepR2b cells were seeded in the insert with 250 μl of serum free medium in presence or absence of 7 μg antibodies FLp26-8.2. Outside the insert, 750 μl medium with 10% FCS was added in the well as chemoattractant. After 48 h of incubation, the non-invading cells and collagen are removed from the upper surface of the membrane by scrubbing with a cotton swab. Invading cells (those adhering to the bottom surface of the membrane) were fixed and stained with the Kwif diff stain kit (Thermo®) and the number of stained cells were counted with an inverted microscope at 200× magnification.

MCF-7 cells = experiment: Type I collagen invasion assay, MCF-7 cells; assay type: cell-based; settings: parental MCF-7; EGF 100 ng/mL; 7 μg antibody; 48 h
Procedure: as §2

CHO-NTSR1 cells = experiment: Cell proliferation of CHO-NTSR1 cells treated with NTS or LNM-R conditioned media; assay type: cell-based; settings: 2.8 μg antibody, 60% without antibody
Procedure: Cell Proliferation 20 000 CHO-NTSR1 cells were seeded in 48 well dishes, in 200 ul media 10% with FCS. […] Cells were treated for 40 h in 200 μl media with 2.5% FCS. Cellular proliferation was evaluated by counting using Beckman Coulter's cell counting.

Hep-R1a cells = experiment: Collagen invasion assay, Hep-R1a cells (Hep3B transfected with NTSR1); assay type: cell-based; settings: expressing NTS and NTSR1, exposed to antibody
Procedure: as §2

Hep-R1b cells = experiment: Collagen invasion assay, Hep-R1b cells (Hep3B transfected with NTSR1); assay type: cell-based; settings: expressing NTS and NTSR1, exposed to antibody
LNM-R tumors [4] = experiment: Tumor xenograft, LNM-R lung cancer cells (NTS and NTSR1 expressing), left flank; assay type: in vivo, NMRI nu/nu mice; settings: 15 mg/kg i.p. every other day
Procedure: (§3) 1×10^6 LMN-R cells and 1×10^6 R-SI NTSR1 were subcutaneously inoculated in NMRI nu/nu mice, LMN-R in the left flank and R-SI NTSR1 in the right flank. When tumors generated by LMN-R reached an average volume of 40 mm^3, mice were randomized in 2 groups, then administered antibody FLp26-8.2 (i.p. every other day, 15 mg/kg) for total 8 times. PBS was used as the vehicle control. The volume of tumor was measured daily.

R-SI NTSR1 tumors [5] = experiment: Tumor xenograft, R-SI NTSR1 cells (LNM-R with NTSR1 sh-RNA), right flank; assay type: in vivo, NMRI nu/nu mice; settings: 15 mg/kg i.p. every other day; vs PBS; same mice
Procedure: as §3

MDA-MB231 tumors = experiment: Tumor xenograft, MDA-MB 231 breast cancer cells, left flank; assay type: in vivo, NMRI nu/nu mice; settings: 15 mg/kg i.p. every other day
Procedure: (§4) 3×10^6 MDA-MB 231 cells and 3×10^6 MDA si2 were subcutaneously inoculated in 100 μl of matrigel the left flank and the right flank of the NMRI nu/nu mice, respectively. When tumors generated by MDA reached an average volume of 50 mm^3, mice were randomized in 2 groups, then administered antibody FLp26-8.2 (i.p. every other day, 15 mg/kg) for total 12 times. PBS was used as the vehicle control.

MDA Si2 tumors = experiment: Tumor xenograft, MDA Si2 cells (sh NTSR1), right flank; assay type: in vivo, NMRI nu/nu mice; settings: 15 mg/kg i.p. every other day, vs PBS
Procedure: as §4

Row | Molecule | tumor growth rates (LNM-R tumors [1]; cisplatin 1 mg/kg day 1,3,5,7,15,17,19, IgG 15 mg/kg i.p. every other day, compared to PBS) | tumor size (R-SI NTSR1 tumors [2]) | induction of invasiveness induced or not by EGF [3] | induction of invasiveness induced or not by EGF (MCF-7 cells) | cellular growth inhibition with antibody added (CHO-NTSR1 cells; CM (LNM-R conditioned media) treated cells) [%] | cellular growth inhibition with antibody added (CHO-NTSR1 cells; NTS treated cells (10^-7 M)) [%] | invasive rate of the cells (Hep-R1a cells) | invasive rate of the cells (Hep-R1b cells) | tumor size as compared to controls (LNM-R tumors [4]; 8 times, vs PBS) [times smaller] | growth from D1 (LNM-R tumors [4]; PBS 24.68±4.05) [fold] | doubling time after 16 days of treatment (LNM-R tumors [4]; PBS control 3.43±0.34) [days] | growth rate (R-SI NTSR1 tumors [5]) | size of the tumor (R-SI NTSR1 tumors [5]) | tumor growth (MDA-MB231 tumors; 24 days, compared to PBS) | growth rate from D1 (MDA-MB231 tumors; PBS 4.4±0.33) [fold] | doubling time after 24 days of treatment (MDA-MB231 tumors; control 11.63±1) [days] | doubling time (MDA Si2 tumors) | growth rate (MDA Si2 tumors) | tumor size (MDA Si2 tumors) | tumor size (LNM-R tumors [1]; FLp26-8.2 15 mg/kg i.p. every other day, with or without cisplatin 1 mg/kg)
1 | N.N.[Cl][Pt][Cl] [cisplatin, reference compound] | not altered | decreased | – | – | – | – | – | – | – | – | – | – | – | – | – | – | – | – | – | –
2 | B1 | – | – | inhibited | only in the NTS-overexpressing clones | 15 | 48 | more drastic | reduced | 2.6 | 5.92±0.99 | 5.96 ± 0.55 | not different | not different | strong reduction | 2.1±0.18 | 55.5 ± 32 | no difference | no difference | no difference | smaller
